Measurements from article PMC2174230 (The Journal of Cell Biology, 1999).

Molecular target: T1, GST-Kap122p (S. cerevisiae, UniProt P32767 1-1081)
T1 sequence: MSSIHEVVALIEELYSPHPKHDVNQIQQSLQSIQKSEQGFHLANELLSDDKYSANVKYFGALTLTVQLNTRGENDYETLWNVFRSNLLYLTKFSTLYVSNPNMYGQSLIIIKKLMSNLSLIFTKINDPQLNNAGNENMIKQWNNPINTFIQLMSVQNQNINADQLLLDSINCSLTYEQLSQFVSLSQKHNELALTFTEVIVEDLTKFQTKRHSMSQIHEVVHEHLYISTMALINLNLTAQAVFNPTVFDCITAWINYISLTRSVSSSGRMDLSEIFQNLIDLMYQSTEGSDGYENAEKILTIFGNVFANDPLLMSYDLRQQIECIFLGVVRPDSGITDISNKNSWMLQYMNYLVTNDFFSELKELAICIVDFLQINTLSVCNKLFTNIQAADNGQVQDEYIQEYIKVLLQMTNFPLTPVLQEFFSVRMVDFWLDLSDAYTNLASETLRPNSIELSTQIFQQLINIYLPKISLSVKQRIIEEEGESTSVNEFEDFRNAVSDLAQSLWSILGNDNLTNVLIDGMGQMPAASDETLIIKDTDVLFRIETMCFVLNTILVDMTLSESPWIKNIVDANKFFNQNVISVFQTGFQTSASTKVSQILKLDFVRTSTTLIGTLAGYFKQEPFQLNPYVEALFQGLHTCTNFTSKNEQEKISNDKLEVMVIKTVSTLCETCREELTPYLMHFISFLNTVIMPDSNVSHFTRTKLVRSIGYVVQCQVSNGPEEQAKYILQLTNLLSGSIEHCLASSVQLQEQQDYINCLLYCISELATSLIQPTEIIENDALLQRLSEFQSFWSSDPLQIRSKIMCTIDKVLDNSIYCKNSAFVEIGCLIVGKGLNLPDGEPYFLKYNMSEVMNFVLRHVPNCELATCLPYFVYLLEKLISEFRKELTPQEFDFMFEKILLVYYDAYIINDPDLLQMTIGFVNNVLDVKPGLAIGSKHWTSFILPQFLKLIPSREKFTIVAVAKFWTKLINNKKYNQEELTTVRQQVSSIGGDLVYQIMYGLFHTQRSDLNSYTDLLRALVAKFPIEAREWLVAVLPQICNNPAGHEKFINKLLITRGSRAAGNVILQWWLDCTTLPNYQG
Experiment: pull-down

B1: His6-Toa1p/Toa2p complex (recombinant TFIIA) (complex)
chain 1: MSNAEASRVYEIIVESVVNEVREDFENAGIDEQTLQDLKNIWQKKLTETKVTTFSWDNQFNEGNINGVQNDLNFNLATPGVNSSEFNIKEENTGNEGLILPNINSNNNIPHSGETNINTNTVEATNNSGATLNTNTSGNTNADVTSQPKIEVKPEIELTINNANITTVENIDDESEKKDDEEKEEDVEKTRKEKEQIEQVKLQAKKEKRSALLDTDEVGSELDDSDDDYLISEGEEDGPDENLMLCLYDKVTRTKARWKCSLKDGVVTINRNDYTFQKAQVEAEWV
chain 2: MAVPGYYELYRRSTIGNSLVDALDTLISDGRIEASLAMRVLETFDKVVAETLKDNTQSKLTVKGNLDTYGFCDDVWTFIVKNCQVTVEDSHRDASQNGSGDSQSVISVDKLRIVACNSKKSE
  binding result: binds
